Values belong to the molecule of their own block, whether it stands above or below them.
Assays:
[1] = biological target: Hoxd13 (expressed in transfected cells) (UniProt P70217)
[2] = biological target: Hoxd13 (expressed in transfected cells) (UniProt P70217 1-339); test: cell-based or functional assay
Sequence of Hoxd13 (expressed in transfected cells) (UniProt P70217 1-339) (P70217 whole entry): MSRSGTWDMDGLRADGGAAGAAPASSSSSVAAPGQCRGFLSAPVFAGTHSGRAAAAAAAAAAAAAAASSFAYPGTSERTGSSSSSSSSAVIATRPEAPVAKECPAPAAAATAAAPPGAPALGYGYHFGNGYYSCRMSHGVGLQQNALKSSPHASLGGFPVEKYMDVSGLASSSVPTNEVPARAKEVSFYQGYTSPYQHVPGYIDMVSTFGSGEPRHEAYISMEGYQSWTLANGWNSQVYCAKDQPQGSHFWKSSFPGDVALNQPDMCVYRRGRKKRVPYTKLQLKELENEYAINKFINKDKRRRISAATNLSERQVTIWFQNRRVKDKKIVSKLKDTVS

Sequence of Hoxd13 (expressed in transfected cells) (UniProt P70217) (P70217 whole entry): as above

repression by co-expressed Gli3R of Hand2-Hoxd13 mediated transactivation of the ZRS-Luc reporter in NIH3T3 cells [1]: 50%
Molecule: Gli3 repressor isoform (Gli3R), Myc-epitope tagged (domain or fragment)

luciferase activity of the ZRS-Luc reporter in NIH3T3 cells on co-transfection of Hand2 and Hoxd13 (basal activity set to 1; Hand2 alone ∼3-fold, Hoxd13 alone ∼6.5-fold) [2]: ~10.5 fold
B1: Hand2, Flag-epitope tagged (natural protein, UniProt Q61039 1-217, looked up)
chain: MSLVGGFPHHPVVHHEGYPFAAAAAAAAAAAASRCSHEENPYFHGWLIGHPEMSPPDYSMALSYSPEYASGAAGLDHSHYGGVPPGAGPPGLGGPRPVKRRGTANRKERRRTQSINSAFAELRECIPNVPADTKLSKIKTLRLATSYIAYLMDLLAKDDQNGEAEAFKAEIKKTDVKEEKRKKELNEILKSTVSSNDKKTKGRTGWPQHVWALELKQ

— article PMC2851570, “Distinct Roles of Hand2 in Initiating Polarity and Posterior Shh Expression during the Onset of Mouse Limb Bud Development” (PLoS Genetics, 2010)
